In PMC8573170 (2021) one finds Ki and Kd data, which are given here for two molecules.

Assay [1] has as its target T1, alpha-thrombin (Homo sapiens, UniProt P00734). In words: inhibition of S-2238 hydrolysis, Morrison fit.
The target of assay [2] is T1, alpha-thrombin. In words: SPR. For orientation: Surface plasmon resonance follows binding to a sensor surface in real time, without labels.
Assay [3] has as its target T1, alpha-thrombin. Kind of assay: inhibition of S-2238 hydrolysis, Kiapp versus substrate concentration regression.

Broadly, the Kd is a measure of binding affinity in units of concentration. Low readings indicate a tighter complex, high ones a looser complex.

Regarding KPVEAEVAQSNLDECEVEAEVAQPKLYQRGEGGNGMEPIPEDVLNEALNA [XC-42 mature peptide], in assay [1], the Ki was 18 pM.

KPVEAEVAQPKLYQRGEGGNGMEPIPEDVLNEALNA [XC-43 mature peptide] returned a Kd in assay [2] of 3 pM. Further, the values for the Ki in assay [1] and in assay [3] were 6.1 pM and 7.7 pM, respectively.
